This is an account of results in publication PMC10147646.

Experiment [1] deals with JellyOp(K72T) (Carybdea rastonii).
The target in experiment [2] is JellyOp (opsin-based pigment from the box jellyfish Carybdea rastonii) (Carybdea rastonii).
Experiment [3] shares this target. The source holds these as a separate data set.

Sequence of JellyOp (opsin-based pigment from the box jellyfish Carybdea rastonii) (Carybdea rastonii) (B6F0Y5 entry or part of it): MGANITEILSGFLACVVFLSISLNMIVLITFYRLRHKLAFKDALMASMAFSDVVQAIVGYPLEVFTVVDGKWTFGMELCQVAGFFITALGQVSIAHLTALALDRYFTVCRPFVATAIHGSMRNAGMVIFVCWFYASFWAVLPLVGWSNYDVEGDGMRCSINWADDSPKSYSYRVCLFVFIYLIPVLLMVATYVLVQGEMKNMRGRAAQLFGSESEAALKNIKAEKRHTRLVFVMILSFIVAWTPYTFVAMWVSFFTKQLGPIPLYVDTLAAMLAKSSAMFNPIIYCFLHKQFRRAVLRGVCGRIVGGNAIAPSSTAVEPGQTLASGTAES

On to “Gαs (from UniProt P63092 1-394) (natural protein)”, for which, in experiment [1], the fast time constant of GIRK current inactivation by violet light (double-exponential decay) stood at 281 ms and the slow time constant of GIRK current inactivation by violet light (double-exponential decay) stood at 8.4 s. Further, the time constant of inactivation (TauOFF) of the JellyOp GIRK response by high-intensity violet light (405 nm) in experiment [2] was found to be 252 ms. In experiment [3], this substance gave a time constant of onset (TauON) of the light-triggered GIRK current in cells expressing JellyOp of 34 ms.
